Measurements published in US20230103407A1 (UNIVERSITY OF CINCINNATI, published 2023).

What was measured:
[1] = target: T1, acid β-glucosidase (GCase), Velaglucerase alfa (human, UniProt P04062 40-536, Chain 1 is a glycoprotein with N-linked, mannose-terminated oligosaccharides, which the letters do not carry.); test: microscale thermophoresis (MST); unlabelled GCase titrated against NBD-PS labelled SapC-DOPS, CP buffer pH 5.6
T1 construct: also called free GCase; human GCase
T1 sequence: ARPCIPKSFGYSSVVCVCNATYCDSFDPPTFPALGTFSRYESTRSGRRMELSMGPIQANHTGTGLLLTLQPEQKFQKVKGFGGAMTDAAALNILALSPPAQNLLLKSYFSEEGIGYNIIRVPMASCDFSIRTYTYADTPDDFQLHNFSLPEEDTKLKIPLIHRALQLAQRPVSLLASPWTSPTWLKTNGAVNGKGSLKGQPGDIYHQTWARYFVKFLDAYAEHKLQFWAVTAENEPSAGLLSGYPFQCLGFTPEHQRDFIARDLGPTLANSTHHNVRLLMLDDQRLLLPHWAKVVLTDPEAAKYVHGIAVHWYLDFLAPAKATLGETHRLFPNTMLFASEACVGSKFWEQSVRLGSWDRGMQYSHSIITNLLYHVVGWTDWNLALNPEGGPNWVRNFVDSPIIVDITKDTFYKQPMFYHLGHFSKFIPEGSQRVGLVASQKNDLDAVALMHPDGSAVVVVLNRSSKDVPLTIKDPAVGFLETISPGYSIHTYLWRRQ
Description: (§1) Binding was determined by measuring Kd using a Microscale Thermophoresis (MST) assay system on a Monolith NT.115. MicroScale NanoTemper. Temperature related intensity change (TRIC) together with thermophoresis contribution to the variation of fluorescence intensity was determined. NBD-PS [2-(4-nitro-2,1,3-benzoxadiazol-7-yl)aminoethyl-phophatidylserine (Avanti Polar Lipids Inc., Alabaster, Ala.) was used to fluorescently label DOPS. DOPS in chloroform was mixed with NBD-PS in DMSO at the molar ratio of 3:1. The organic solvent was evaporated under nitrogen gas. Upon suspension in CP buffer (0.1 M Citrate Phosphate buffer, pH 5.6), the mixture solutions were bath sonicated for 30 mins at 4° C. This preparation was tested with SapC or SapB to measure the Kd for binding to DOPS. […]
(§2) The final concentration of the reaction mixtures ranged from GCase/SapC-DOPS-NBD of 1562 nM/7500 nM for the 1st point to 0.024 nM/7500 nM for the 16th point (FIG. 16, Table 3). […] The thermophoresis time was 30 secs with dual reading setting (LED: 20%/40%; MST: 40%/50%). […] The raw data were analyzed to determine Kd values and plotted using MO Affinity Analysis v2.1.3 software (NanoTemper, München, Germany).

[2] = target: T1, acid β-glucosidase (GCase), …; test: microscale thermophoresis (MST), NBD-PS labelled vesicles, CP buffer pH 5.6
Description: as §1, §2

| Binder | Kd [1] | binding result [2] |
| --- | --- | --- |
| SapC-DOPS nanovesicles (saposin C with dioleoylphosphatidylserine) (other) SDVYCEVCEFLVKEVTKLIDNNKTEKEILDAFDKMCSKLPKSLSEECQEVVDTYGSSILSILLEEVSPELVCSMLHLCSG | 29.4 nM | – |
| saposin B (SapB)-DOPS (other, UniProt P07602 195-273, looked up, SapB formulated with DOPS at a 1:7 molar ratio and labelled with NBD-PS) GDVCQDCIQMVTDIQTAVRTNSTFVQALVEHVKEECDRLGPGMADICKNYISQYSEIAIQMMMHMQPKEICALVGFCDE | – | no binding |
